Data published in a protein production outcome set (Wang et al. 2014).

Assay: label from the status in PepcDB records

| Sequence | protein production |
| --- | --- |
| MAGGHCGSFAAAAASSGEIVQLNVGGTRFSTSRQTLMWIPDSFFSSLLSGRISTLRDETGAIFIDRDPAAFAPILNFLRTKELDLRGVSINVLRHEAEFYGITPLVRRLLLCEELERSSCGSVLFHGYLPPPGIPSRKGTNTARSSVDARNGLSSMEGEARGSGTQPVLAGNGEDTIRLVDKLSVESWPVGVPVDPRKVLIVAGHHNWIVAAYAHFAVCYRIKESSGWQQVFTSPYLDWTIERVALNAKVVGGPHGDKDKMVAVASESSIILWSVQDGGSGSEIGVFSLGVPVDALFFIGNQLVATSHTGKVGVWNAVTQHWQVQDVVPITSYDTAGSFLLLGCNNGSIYYIDMQKFPLRMKDNDLLVTELYHDPSNDAITALSVYLTPKTSVSGNWIEIAYGTSSGAVRVIVQHPETVGSGPQLFQTFTVHRSPVTKIMLSEKHLVSVCADNNHVRTWTVTRFRGMISTQPGSTPLASFKILSLKRQRATAAIPLEMTSGLLENEMINKCLSRRLFPSPTSCLSGCHRLEKGYVRSRLWTALQSPRSLXESARAPAGWAPGQGATCSLATPTAASRCGTXPQPWTWSTRARTRTQAAPLRKSCSSCWTSVIXARPAAPRPTSALPPLCSSTAAFVSPAPAFSSSTTKPSMKQQPMVPRGLTERALCXPEQGGLRASTATGTCRLSISTELXRELSLRMVTRAQPRLRQKGQQQGSVLCVRGSPRGQREDVXGSPMWAXTCTDQRKVCQSPRKGQQRMKMSPKWSSGRKDSKQGDSLEERKFPIWHPHQVPLMEGPTPLVQHPRLQLRPLRHLGTERATPLARSTAC | failed |
| MAGKEFKQRIRQALNNASLRGALGRFADSYVVSREEVYAGRDFESLRQRIAAIKADAAGRYEELADRFSRAVEARGGKVFRAKDAAAAREYIYQVAKEHGVTEIVKSKSFASEEIHLNEFLQERGINPYETDLAEWILQLMPGERPSHMVMPAIHLPKEEVARVFSRYLGEPVEPDIKNMVRIARRELRKKFLTAGMGISGANIAVAETGTIVLCTNEGNARLTTTVPPVHVAIVGYEKLVPSIKDIVPILEALPRSGTAQPITSYVTMITGPVPAWRGEGEGIKELHVVLLDNGRTRMAADPVFKEALQCIRCASCTNVCPVFQLVSGQVYGYIYNGGIGSVLTAFFNSLEDAVDPQSLCIGCRRCAEVCPAKINIPDLVLKLRERVVTKQGLSSGYRIALHGIVAKPKLMHTLLRAASRLQGPVTHGQPLIRHLPLFFSNLTSGRSLPAIAKEPLRDRVKRLEARTGRPRLKAAFYSGCVIDFAYPEIGEAVYKVLGREGVQVTFPQGQACCGAPAVYAGDRETAVKLAKQNITALEEARADVVVTACPTCAVALKKDFPELLAGEPAWEERARALAKKVKDFTELVHELTGGQGKKVKQAKKSGSGAVKVTYHDSCHFKRHLGLDQVARQVLKEQPGVELVEMQESDRCCGFGGSYSIKYPEISAPILERKLKNITESGAQVVAADCPGCVLQLRGGLDQKGSSIKVKHTAEVLAALENLQGGGNSK | failed |
| MAGKKVVITIGRQYGSGGADTGRRLAEELGFGFYDKNILRMNSDESGIKESYFHLADEKAGNKLLYKIISSLTPEKGAPSFGSDLISADNLFRFQSEVIRKLAAEESCVIIGRCANYVLDGMEGLLRVYLYADIEVREARIREKDLYDEKEVLKNIKRIDRERRDYHRYYTGRDWQELDNYDLVINTTHIGVDGAVAVIKNYLTVMGYDLEKDFH | not failed |
| MAGLSGAQIPDGEFTAVVYRLIRNARYAEAVQLLGGELQRSPRSRAGLSLLGYCYYRLQEFALAAECYEQLGQLHPELEQYRLYQAQALYKACLYAEATRVAFLLLDNPAYHSRVLHLQAAIKYSEGDLPGSRSLVEQLPSREGGEESGGENETDGQINLGCLLYKEGQYEAACSKFFAALQASGYQPDLSYNLALAYYSSRQYASALKHIAEIIERGIRQHPELGVGMTTEGIDVRSVGNTLVLHQTALVEAFNLKAAIEYQLRNYEAAQEALTDMPPRAEEELDPVTLHNQALMNMDARPTEGFEKLQFLLQQNPFPPETFGNLLLLYCKYEYFDLAADVLAENAHLIYKFLTPYLYDFLDAVITCQTAPEEAFIKLDGLAGMLTEVLRKLTIQVQEARHNRDDEAIKKAVNEYDETMEKYIPVLMAQAKIYWNLENYPMVEKIFRKSVEFCNDHDVWKLNVAHVLFMQENKYKEAIGFYEPIVKKHYDNILNVSAIVLANLCVSYIMTSQNEEAEELMRKIEKEEEQLSYDDPDKKMYHLCIVNLVIGTLYCAKGNYDFGISRVIKSLEPYNKKLGTDTWYYAKRCFLSLLENMSKHTIMLRDSVIQECVQFLEHCELHGRNIPAVIEQPLEEERMHVGKNTVTYESRQLKALIYEIIGWNI | failed |
| MAGLVQKFKQMWTPPEDEYDYDFEEMDMDDEEVMDEISSSSYEEEEAYQEPQRESRRSSAPQSGNKVVNIHAAAQLQVVLFKPERFGDETRSVADELIKMHTVVLNLENTSKDVSRRILDFLSGVAYANNGKIKRVSTATFIITPYNVDLTGDDLMDEIESSSMYL | failed |
| MAGSSTSSSEACTDPYLRCAFNGAALTALGISHSALLAHSPQGCEYLVNNAFASQECDYMETMTLCTKLCVDEIVHGGEDILARTIREVKDLPISALFVLSACGPEIVGDDIVGVCEALQPEVKFRLVPIESAGFRGSQYDGIDIAMDTILKKLVKDDVEKIPGSVCLVAPHANANPTWPADLAWVKQVLFRMGIKVVATLTHRTPIAEIENIASAETSLLLSHDAGQKAADYLSATFGIEQVCKGIPLPIGMTNTQRWLTALGDRFDILKTAEEIVAEGERMVMATCRRKWPMARFMYRTPAAIVADATVGIPLVRFVTEEMEMTPELVALYTSHRSVWELLEGELKSLGLNPKVVYGTDVYKTRKSLQEVRPRVVFGSTIERHASEGLPVAYVVEVVRMMRQFRMINREYFGYTGILNLLECVQNEWVMGWRSKERRYEAKW | failed |
| MAHGMPTQGKVTISVDEYSSNPTQALTHYNINQSRFQPPHVHMVDPISYDTPKPGGHTRFVCVSDTHSRTDGIQMPYGDVLLHTGDFTELGLPSEVKKFNDWLGSLPYEFKVVIAGNHELTFDKDFMTELVKQDYYRFPSVSKLKPKDFDNVQSLLTNCVYLQDSDVTVKGFRIYGTPWTPWFNGWGFNLPRGQSLLDKWNLIPEGVDILMTHGPPLGFRDWVPKELQRVGCVELLNTVQRRVRPKLHVFGGIHEGYGIMTDGYTTFINASTCTVSFQPTNPPIVFDLPNPTSS | failed |
| MAHHHHHHMADQNPDLKVEEALKGADIKLLLIDFDGTLFVDKDIKVPSENIDAIKEAIEKGYMVSICTGRSKVGILSAFGEENLKKMNFYGMPGVYINGTIVYDQIGYTLLDETIETDVYAELISYLVEKNLVNQTIFHRGESNYVTEDNKYADFLQKMYSENRSIIIRHNEMLKYRTMNKLMIVLDPSESKTVIGNLKQKFKNKLTIFTTYNGHAEVTKLGHDKYTGINYLLKHYNISNDQVLVVGDAENDIAMLSNFKYSFAVANATDSAKSHAKCVLPVSHREGAVAYLLKKVFDLKK | not failed |
| MAHLLEKTRKITSILKRSEEQLQDELPYNAITRQLADIIHCNACIINSKGRLLGYFMRYKTNTDRVEQFFQTKIFPDDYVQGANMIYETEANLPVEHDMSIFPIESRDDFPDGLTTIAPIHVSGIRLGSLIIWRNDKKFEDEDLVLVEIASTVVGIQLLNFQREEDEKNIRRRTAVTMAVNTLSYSELRAVSAILGELNGNEGKLTASVIADRIGITRSVIVNALRKLESAGIIESRSLGMKGTYLKVLISDIFEEVKKRDY | failed |
| MAHRRDRGLLGIWGDLVLTSVFIAAVSLALFWMAAFTLWWQMHAWRTPEVLASTRFSRPDGGEGLSFSLLLPARHEQAVLDHTIQRLLESSHTDFEIIVIVGHDDPETTEVARKAAARDERVRVVVDTHEKKNKPKAMNTALPHCRGDVVGVFDAEDQVHPELLAHVDHAFRSTGADVVQGGVQLINFNSSWYSLRNCLEYFFWFRSRLHLHAQKGFIPLGGNTVFVRTDVLKEADGWDPDCLAEDCDLGVRLSSVGKKVVVAYDSDMVTREETPGSLMSLLKQRTRWNQGFLQVYRKKDWKQLPGFGQRLLARYTLMTPFLQAISGVIIPLNAAVALFLDVPVGIAFITFLPAVTAFVTFVFEVVGLHDFGKQYGLRVRSVHYLKLIVGGPFYQVLLAGAAIRAVWREQRGRNDWELTSHVGAHLTEVIREDVPA | failed |
